Test results: patent US20240117018A1

What was measured:
Assay in all cases: cell-based or functional assay
[1] = molecular target: HIV-1 Env of pseudovirus REJO4541.67 (HIV-1)
[2] = molecular target: HIV-1 Env of pseudovirus CNE17 (HIV-1)
[3] = molecular target: HIV-1 Env of pseudovirus ZM109F.PB4 (HIV-1)
[4] = molecular target: HIV-1 Env of pseudovirus BF1266.431a (HIV-1)
[5] = molecular target: HIV-1 Env of pseudovirus Q259.d2.17 (HIV-1)
[6] = molecular target: HIV-1 Env of pseudovirus CNE20 (HIV-1)
[7] = molecular target: HIV-1 Env of pseudovirus Ce2010_F5 (HIV-1)
[8] = molecular target: HIV-1 Env of pseudovirus Du156.12 (HIV-1)
[9] = molecular target: HIV-1 Env of pseudovirus HIV-16845-2.22 (HIV-1)
[10] = molecular target: HIV-1 Env of pseudovirus SC05_8C11_2344 (HIV-1)
[11] = molecular target: HIV-1 Env of pseudovirus 6240_08_TA5_4622 (HIV-1)
[12] = molecular target: HIV-1 Env of pseudovirus 246F C1G (HIV-1)
[13] = molecular target: HIV-1 Env of pseudovirus 1054_07_TC4_1499 (HIV-1)
[14] = molecular target: HIV-1 Env of pseudovirus HIV-16055-2.3 (HIV-1)
[15] = molecular target: HIV-1 Env of pseudovirus CNE30 (HIV-1)
[16] = molecular target: HIV-1 Env of pseudovirus 62357_14_D3_4589 (HIV-1)
[17] = molecular target: HIV-1 Env of pseudovirus Ce0393_C3 (HIV-1)
[18] = molecular target: HIV-1 Env of pseudovirus Du172.17 (HIV-1)
[19] = molecular target: HIV-1 Env of pseudovirus HIV-0013095-2.11 (HIV-1)
[20] = molecular target: HIV-1 Env of pseudovirus CAAN5342.A2 (HIV-1)
[21] = molecular target: HIV-1 Env of pseudovirus ZM249M.PL1 (HIV-1)
[22] = molecular target: HIV-1 Env of pseudovirus CNE5 (HIV-1)
[23] = molecular target: HIV-1 Env of pseudovirus ZM197M.PB7 (HIV-1)
[24] = molecular target: HIV-1 Env of pseudovirus MS208.A1 (HIV-1)
[25] = molecular target: HIV-1 Env of pseudovirus CNE21 (HIV-1)
[26] = molecular target: HIV-1 Env of pseudovirus QH0692.42 (HIV-1)
[27] = molecular target: HIV-1 Env of pseudovirus 0260.v5.c36 (HIV-1)
[28] = molecular target: HIV-1 Env of pseudovirus TRO.11 (HIV-1)
[29] = molecular target: HIV-1 Env of pseudovirus Ce1176_A3 (HIV-1)
[30] = molecular target: HIV-1 Env of pseudovirus Du422.1 (HIV-1)
[31] = molecular target: HIV-1 Env of pseudovirus 1006_11_C3_1601 (HIV-1)
[32] = molecular target: HIV-1 Env of pseudovirus ZM135M.PL10a (HIV-1)
[33] = molecular target: HIV-1 Env of pseudovirus PVO.4 (HIV-1)
[34] = molecular target: HIV-1 Env of pseudovirus Q769.d22 (HIV-1)
[35] = molecular target: HIV-1 Env of pseudovirus Ce704809221_1B3 (HIV-1)

PGT145 (antibody)
neutralization IC50 [1]: < 0.001 mg/L
neutralization IC80 [1]: 0.001 mg/L
neutralization IC50 [2]: 0.091 mg/L
neutralization IC80 [2]: 1.16 mg/L
neutralization IC50 [3]: 0.042 mg/L
neutralization IC80 [3]: 0.234 mg/L
neutralization IC50 [4]: 1.34 mg/L
neutralization IC80 [4]: 18.5 mg/L
neutralization IC50 [5]: 44.2 mg/L
neutralization IC80 [5]: > 50 mg/L
neutralization IC50 [6]: 0.318 mg/L
neutralization IC80 [6]: 6.97 mg/L
neutralization IC50 [7]: > 50 mg/L
neutralization IC80 [7]: > 50 mg/L
neutralization IC50 [8]: 0.001 mg/L
neutralization IC80 [8]: 0.018 mg/L
neutralization IC50 [9]: > 50 mg/L
neutralization IC80 [9]: > 50 mg/L
neutralization IC50 [10]: 0.093 mg/L
neutralization IC80 [10]: 0.248 mg/L
neutralization IC50 [11]: > 50 mg/L
neutralization IC80 [11]: > 50 mg/L
neutralization IC50 [12]: > 50 mg/L
neutralization IC80 [12]: > 50 mg/L
neutralization IC50 [13]: > 50 mg/L
neutralization IC80 [13]: > 50 mg/L
neutralization IC50 [14]: 0.003 mg/L
neutralization IC80 [14]: 0.051 mg/L
neutralization IC50 [15]: > 50 mg/L
neutralization IC80 [15]: > 50 mg/L
neutralization IC50 [16]: > 50 mg/L
neutralization IC80 [16]: > 50 mg/L
neutralization IC50 [17]: 0.112 mg/L
neutralization IC80 [17]: 1.23 mg/L
neutralization IC50 [18]: > 50 mg/L
neutralization IC80 [18]: > 50 mg/L
neutralization IC50 [19]: 9.27 mg/L
neutralization IC80 [19]: > 50 mg/L
neutralization IC50 [20]: 6.67 mg/L
neutralization IC80 [20]: 25.5 mg/L
neutralization IC50 [21]: 1.44 mg/L
neutralization IC80 [21]: > 50 mg/L
IC50 (Titer in TZM.bl cells) [22]: 0.001 mg/L
IC80 (Titer in TZM.bl cells) [22]: 0.013 mg/L
neutralization IC50 [23]: 0.628 mg/L
neutralization IC80 [23]: 5.24 mg/L
neutralization IC50 [24]: 0.334 mg/L
neutralization IC80 [24]: 18 mg/L
neutralization IC50 [25]: < 0.001 mg/L
neutralization IC80 [25]: 0.009 mg/L
neutralization IC50 [26]: > 50 mg/L
neutralization IC80 [26]: > 50 mg/L
neutralization IC50 [27]: > 50 mg/L
neutralization IC80 [27]: > 50 mg/L
neutralization IC50 [28]: 0.04 mg/L
neutralization IC80 [28]: 0.118 mg/L
neutralization IC50 [29]: > 50 mg/L
neutralization IC80 [29]: > 50 mg/L
neutralization IC50 [30]: 22.6 mg/L
neutralization IC80 [30]: > 50 mg/L
neutralization IC50 [31]: > 50 mg/L
neutralization IC80 [31]: > 50 mg/L
neutralization IC50 [32]: > 50 mg/L
neutralization IC80 [32]: > 50 mg/L
neutralization IC50 [33]: 0.192 mg/L
neutralization IC80 [33]: 0.87 mg/L
neutralization IC50 [34]: 0.26 mg/L
neutralization IC80 [34]: 25.5 mg/L
neutralization IC50 [35]: 0.102 mg/L
neutralization IC80 [35]: 0.71 mg/L

PGT151 (antibody)
neutralization IC50 [1]: 0.018 mg/L
neutralization IC80 [1]: 0.119 mg/L
neutralization IC50 [2]: 0.093 mg/L
neutralization IC80 [2]: > 50 mg/L
neutralization IC50 [3]: 0.609 mg/L
neutralization IC80 [3]: > 50 mg/L
neutralization IC50 [4]: > 50 mg/L
neutralization IC80 [4]: > 50 mg/L
neutralization IC50 [5]: > 50 mg/L
neutralization IC80 [5]: > 50 mg/L
neutralization IC50 [6]: > 50 mg/L
neutralization IC80 [6]: > 50 mg/L
neutralization IC50 [7]: > 50 mg/L
neutralization IC80 [7]: > 50 mg/L
neutralization IC50 [8]: 0.005 mg/L
neutralization IC80 [8]: 0.023 mg/L
neutralization IC50 [9]: > 50 mg/L
neutralization IC80 [9]: > 50 mg/L
neutralization IC50 [10]: 0.06 mg/L
neutralization IC80 [10]: > 50 mg/L
neutralization IC50 [11]: 0.046 mg/L
neutralization IC80 [11]: 0.42 mg/L
neutralization IC50 [12]: > 50 mg/L
neutralization IC80 [12]: > 50 mg/L
neutralization IC50 [13]: 0.008 mg/L
neutralization IC80 [13]: 0.032 mg/L
neutralization IC50 [14]: 0.143 mg/L
neutralization IC80 [14]: > 50 mg/L
neutralization IC50 [15]: > 50 mg/L
neutralization IC80 [15]: > 50 mg/L
neutralization IC50 [16]: 0.004 mg/L
neutralization IC80 [16]: 0.023 mg/L
neutralization IC50 [17]: > 50 mg/L
neutralization IC80 [17]: > 50 mg/L
neutralization IC50 [18]: 0.003 mg/L
neutralization IC80 [18]: 0.013 mg/L
neutralization IC50 [19]: > 50 mg/L
neutralization IC80 [19]: > 50 mg/L
neutralization IC50 [20]: 0.005 mg/L
neutralization IC80 [20]: 0.038 mg/L
neutralization IC50 [21]: 0.004 mg/L
neutralization IC80 [21]: 0.015 mg/L
IC50 (Titer in TZM.bl cells) [22]: > 50 mg/L
IC80 (Titer in TZM.bl cells) [22]: > 50 mg/L
neutralization IC50 [23]: 0.003 mg/L
neutralization IC80 [23]: 0.033 mg/L
neutralization IC50 [24]: < 0.001 mg/L
neutralization IC80 [24]: 0.003 mg/L
neutralization IC50 [25]: 0.004 mg/L
neutralization IC80 [25]: 0.012 mg/L
neutralization IC50 [26]: 0.029 mg/L
neutralization IC80 [26]: 0.522 mg/L
neutralization IC50 [27]: 0.427 mg/L
neutralization IC80 [27]: > 50 mg/L
neutralization IC50 [28]: > 50 mg/L
neutralization IC80 [28]: > 50 mg/L
neutralization IC50 [29]: 0.006 mg/L
neutralization IC80 [29]: 0.018 mg/L
neutralization IC50 [30]: 4.6 mg/L
neutralization IC80 [30]: > 50 mg/L
neutralization IC50 [31]: 2.89 mg/L
neutralization IC80 [31]: > 50 mg/L
neutralization IC50 [32]: > 50 mg/L
neutralization IC80 [32]: > 50 mg/L
neutralization IC50 [33]: 0.017 mg/L
neutralization IC80 [33]: > 50 mg/L
neutralization IC50 [34]: > 50 mg/L
neutralization IC80 [34]: > 50 mg/L
neutralization IC50 [35]: > 50 mg/L
neutralization IC80 [35]: > 50 mg/L
